Legend:
[1] = system: M2 macrophages; test: Activation of human M2 macrophages (M2 moMacs) in vitro, flow cytometry; format: cell-based; conditions: 24 hours incubation
Method: Primary human monocytes were isolated from a leukapheresis using magnetic bead selection and frozen for storage in liquid nitrogen. For monocyte DC (moDC) differentiation, cells were thawed and incubated in media containing GM-CSF and IL-4 for 7 days. For M2 macrophages (M2 moMacs), cells were thawed and incubated for 6 days with M-CSF containing media and then polarized with the addition of IL-4 for 24 hours. After the differentiation process for both moDC and moMacs, media was washed off and replaced with fresh media containing isotype control (DAPA version of Trastuzumab) C1, or DC-SIGN antibody C1 conjugates. Free T1-1 compound was used as a control. 24 hours after incubation with indicated compounds, cells were evaluated by flow cytometry for activation.
Peripheral blood Leukopaks from normal human donors were obtained from HemaCare. […]
Human CD14+ monocytes were isolated and frozen as described. […] Cells were counted and plated at 40,000-80,000 cells per well in a 384 well flat bottom tissue culture plate (Greiner). […]
24 hours after activation with compounds, cells were evaluated by flow cytometry according to the described protocol using antibody clones described in flow cytometry protocol section. DC-SIGN+CD11c+ HLA-DR+ cells were identified and assessed for CD86 expression and levels of DC-SIGN.

[2] = system: transgenic mice expressing human DC-SIGN gene (Tg+); test: Splenic dendritic cell activation in human DC-SIGN transgenic mice, flow cytometry; format: in vivo, mouse; conditions: 24 hours post dose
Method: Blood was collected at 6 hours post dose to analyze plasma cytokine and chemokine levels and spleens were analyzed at 24 hours post dose to look at dendritic cell activation.
Spleens were harvested 24 hours post dose and analyzed by flow cytometry to look at CD11c+ dendritic cells.
Tumors and/or spleens were extracted at the timepoints indicated from animals. Spleens were processed into a single cell suspension using glass slides and passed through a 100 micron mesh filter. Spleens were lysed in 1 mL of ACK lysis buffer (Life Technologies) for 5 minutes at room temperature. […]
1-2 million cells for each sample were then stained with a cocktail of antibodies to determine impact of the treatments on dendritic cells, myeloid cells and T cells. […] After staining, cells were evaluated on the BD LSRFortessa™ cell analyzer (BD Biosciences, San Jose, Calif.). […]

[3] = system: transgenic mice expressing human DC-SIGN gene (Tg+); test: Plasma cytokine production in transgenic mice expressing human DC-SIGN (ELISA / MesoScaleDiscovery); format: in vivo, mouse
Method: FIGS. 5A-5E show exemplary data on DC-SIGN immunoconjugates inducing cytokine production in Tg+ mice. […] Plasma levels were analyzed by ELISA (IP-10 and IFNβ) or MesoScaleDiscovery Multiplex analysis (all other analytes). **** denotes p value of <0.0001 using an ANOVA with Tukey's test compared to Tg-2B2 hlgG1 DAPA C1 group.
Mice were bled 6 hours after dosing to collect plasma for analysis of circulating cytokine levels.

B1: 2B2 (DAPA) C1 (conjugate)
heavy: QVQLVQSGAEVKKPGASVKVSCKASGYTFTNYGINWVRQAPGQRLEWMGYIYIGNDYTEYNERFKGRVTITSDTSASTAYMELSSLRSEDTAVYYCARLYYGSSLYSYAMDYWGQGTTVTVSSASTKGPSVFPLAPSSKSTSGGTAALGCLVKDYFPCPVTVSWNSGALTSGVHTFPAVLQSSGLYSLSSVVTVPSSSLGTQTYICNVNHKPSNTKVDKRVEPKSCDKTHTCPPCPAPELLGGPSVFLFPPKPKDTLMISRTPEVTCVVVAVSHEDPEVKFNWYVDGVEVHNAKTKPREEQYNSTYRVVSVLTVLHQDWLNGKEYKCKVSNKALAAPIEKTISKAKGQPREPQVYTLPPSREEMTKNQVSLTCLVKGFYPCDIAVEWESNGQPENNYKTTPPVLDSDGSFFLYSKLTVDKSRWQQGNVFSCSVMHEALHNHYTQKSLSLSPGK
light: DIVMTQSPLSLPVTPGEPASISCRSSKSLLHSSGNTYLYWFLQKPGQSPQLLISRMSNLASGVPDRFSGSGSGTDFTLKISRVEAEDVGVYYCMQHLEYPYTFGGGTKVEIKRTVAAPSVFIFPPSDEQLKSGTASVVCLLNNFYPREAKVQWKVDNALQSGNSQESVTEQDSKDSTYSLSSTLTLSKADYEKHKVYACEVTHQGLSSPVTKSFNRGEC
[1]
  downregulation of DC-SIGN on macrophages: induced downregulation of DC-SIGN
  macrophage activation as measured by CD86 upregulation: induced monocyte dendritic cell and macrophage activation
[2]; 1 mg/kg i.v. (Fab2 1.33 mg/kg, Fab 1.3 mg/kg)
  CD86 upregulation on splenic dendritic cells: significantly upregulated
[2]; 1 mg/kg i.v.
  CD80 upregulation on splenic dendritic cells: significantly upregulated
[3]
  circulating plasma IL-12p70: increased
  circulating plasma IP-10: increased
  circulating plasma TNFα: increased

— US20210170043A1, “DC-SIGN ANTIBODY CONJUGATES COMPRISING STING AGONISTS” (NOVARTIS AG, priority 2018, published 2021)
